The source of these data is publication PMC3713010, “Sox2 Transcriptionally Regulates Pqbp1, an Intellectual Disability-Microcephaly Causative Gene, in Neural Stem Progenitor Cells”.

Sequences and labels used below:
T1: Oct6 DNA-binding domain (BD-Oct6) (Mus musculus (B6), UniProt P21952 317-416)
T1 sequence: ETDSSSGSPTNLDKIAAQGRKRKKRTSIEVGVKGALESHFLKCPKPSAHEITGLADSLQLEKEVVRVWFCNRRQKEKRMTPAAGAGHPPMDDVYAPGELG

T2: Brn2 DNA-binding domain (BD-Brn2) (Mus musculus (B6), UniProt P31360 336-435)
T2 sequence: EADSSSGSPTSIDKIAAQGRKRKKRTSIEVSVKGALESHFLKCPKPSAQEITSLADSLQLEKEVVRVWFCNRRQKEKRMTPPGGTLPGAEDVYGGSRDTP

B1: 9 (dsDNA)
DNA 1: GGGGGTCCTGCCACTTGGGTTGCAGTGAGGACAATGAAATGAGCCCCC
DNA 2: GGGGGCTCATTTCATTGTCCTCACTGCAACCCAAGTGGCAGGACCCCC
B2: 2 (dsDNA)
DNA 1: GGGGGGCCATAGAATTGTACTTCTGTCACCAGTTTTATTTTTTTATTTCCCCC
DNA 2: GGGGGAAATAAAAAAATAAAACTGGTGACAGAAGTACAATTCTATGGCCCCCC
B3: 108 (dsDNA)
DNA 1: GGGGGCATCTTATCGTTAATATATACGTTTGTTACATATACCCCC
DNA 2: GGGGGTATATGTAACAAACGTATATATTAACGATAAGATGCCCCC
B4: 116 (dsDNA)
DNA 1: GGGGGAAGGCCAGACTAATCTACAAAGTGAGTTCCCCCC
DNA 2: GGGGGGAACTCACTTTGTAGATTAGTCTGGCCTTCCCCC
B5: 106 (dsDNA)
DNA 1: GGGGGGCTTCCCTAGAATTGGAGATACAAAGGGCTCTGCCCCC
DNA 2: GGGGGCAGAGCCCTTTGTATCTCCAATTCTAGGGAAGCCCCCC
B6: 100 (dsDNA)
DNA 1: GGGGGCAACCAAAAAAAATGTATTTTACAAAAATCACAACCCCC
DNA 2: GGGGGTTGTGATTTTTGTAAAATACATTTTTTTTGGTTGCCCCC
B7: 104 (dsDNA)
DNA 1: GGGGGCACAATTTTTATAATATATAATTGTTTCATCAACCCCC
DNA 2: GGGGGTTGATGAAACAATTATATATTATAAAAATTGTGCCCCC
B8: 105 (dsDNA)
DNA 1: GGGGGATTTTTTAAAAAATTAGACTACCACAAATCAACTGTCCCCC
DNA 2: GGGGGACAGTTGATTTGTGGTAGTCTAATTTTTTAAAAAATCCCCC
B9: 102b (dsDNA)
DNA 1: GGGGGAAAACAAAACAAAACTGGATTTGGCGATTGTATCCCCC
DNA 2: GGGGGATACAATCGCCAAATCCAGTTTTGTTTTGTTTTCCCCC
B10: 111 (dsDNA)
DNA 1: GGGGGTTCAACCTTTTGTTGTATCATTTAAAAAACATTCCCCC
DNA 2: GGGGGAATGTTTTTTAAATGATACAACAAAAGGTTGAACCCCC
B11: 110 (dsDNA)
DNA 1: GGGGGTTTATTTATTTGTTTTATTTCTATTTTTCTTGGTGACCCCC
DNA 2: GGGGGTCACCAAGAAAAATAGAAATAAAACAAATAAATAAACCCCC
B12: 1 (dsDNA)
DNA 1: GGGGGAAAATAACCAAAATAAAAAGTGTACAATTCAGTGGCCCCCC
DNA 2: GGGGGGCCACTGAATTGTACACTTTTTATTTTGGTTATTTTCCCCC
B13: 10 (dsDNA)
DNA 1: GGGGGACACACACACAAAGATTTATTTATTCATTTAATCCCCC
DNA 2: GGGGGATTAAATGAATAAATAAATCTTTGTGTGTGTGTCCCCC
B14: 107 (dsDNA)
DNA 1: GGGGGACTAGTTTTCTATTACTACAAATCTCAACTCCCCC
DNA 2: GGGGGAGTTGAGATTTGTAGTAATAGAAAACTAGTCCCCC
B15: 102a (dsDNA)
DNA 1: GGGGGGGATCCCCACAATACAAAAAAAACAAAAACAAAACCCCCC
DNA 2: GGGGGGTTTTGTTTTTGTTTTTTTTGTATTGTGGGGATCCCCCCC
B16: 112 (dsDNA)
DNA 1: GGGGGTGTGTTCATTTGTTTTTATTTTAGAAGGAGTCCCCC
DNA 2: GGGGGACTCCTTCTAAAATAAAAACAAATGAACACACCCCC
B17: 117 (dsDNA)
DNA 1: GGGGGGAAAAACAAAGATTTAGTATAAACCCCC
DNA 2: GGGGGTTTATACTAAATCTTTGTTTTTCCCCCC
B18: 114 (dsDNA)
DNA 1: GGGGGTGATTTTTGCAAAATTTTGTTTTGTTTCTTGAGCCCCC
DNA 2: GGGGGCTCAAGAAACAAAACAAAATTTTGCAAAAATCACCCCC
B19: 109 (dsDNA)
DNA 1: GGGGGCTTTTTTTTTTGTATGTGATTTGAGGCAGAGTCCCCC
DNA 2: GGGGGACTCTGCCTCAAATCACATACAAAAAAAAAAGCCCCC
B20: 115 (dsDNA)
DNA 1: GGGGGCTGGCCAGACAATGACGATATTTTTTTCCTTCACCCCCC
DNA 2: GGGGGGTGAAGGAAAAAAATATCGTCATTGTCTGGCCAGCCCCC
B21: 113 (dsDNA)
DNA 1: GGGGGACTAAGTCATTGTTTATTTCCGTGCTGTTCCCCC
DNA 2: GGGGGAACAGCACGGAAATAAACAATGACTTAGTCCCCC
B22: 101 (dsDNA)
DNA 1: GGGGGTGCCTCCTTTTGTGAGCTATTTATAATGCTAACCCCC
DNA 2: GGGGGTTAGCATTATAAATAGCTCACAAAAGGAGGCACCCCC
B23: 102c (dsDNA)
DNA 1: GGGGGATTTGGCGATTGTATTATAATTGTCTATCAGTCCCCC
DNA 2: GGGGGACTGATAGACAATTATAATACAATCGCCAAATCCCCC

Chain of Pax6 DNA-binding domain (BD-Pax6) (P63015 190-289): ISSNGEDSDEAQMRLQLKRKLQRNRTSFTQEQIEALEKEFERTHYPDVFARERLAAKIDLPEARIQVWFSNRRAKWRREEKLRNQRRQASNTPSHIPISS

One data set addresses Pax6 DNA-binding domain (BD-Pax6) (Mus musculus (B6), UniProt P63015 190-289). The data set can be described thus: EMSA; 10% glycerol, 20 mM HEPES pH 7.8, 45 mM KCl, 10 mM NaCl, 1 mM EDTA, 1 mM DTT, 0.2 ug/uL BSA, 0.1% NP-40, 50 ng poly-dIdC; 20 ng each GST protein; room temperature 30 min (heterodimers 4 C); 6% PAGE 0.25x TBE. Particulars: protein: recombinant; tags: GST (N-terminal, pGEX-6P-1); label: 32P-dCTP fill-in of the 5' (dG)5 overhangs of both strands (Methods; control probes are given with GGG). In short, it runs like this:
(§1)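 DNA binding of transcription factor DNA-binding domains to candidate cis-elements was read from band radioactivity in the expected shift region. The GST-tagged domains came from E. coli BL21 via glutathione-sepharose; probes were annealed oligonucleotides labelled with 32P-dCTP. Each assay used 20 ng protein, 40,000–50,000 cpm probe and 50 ng poly-dIdC for 30 min at room temperature, followed by 6% polyacrylamide electrophoresis in 0.25×TBE at 4°C.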
In the case of B1, the binding result was “no binding”.

Regarding B2, the binding result was “no binding”.

With B3, the binding result is “binds”.

On to B4, for which the binding result is recorded as “no binding”.

In the case of B5, the binding result is “no binding”.

In the case of B6, the binding result is reported as “binds”.

As for B7, the binding result is recorded as “binds”.

For B8, the binding result was “binds”.

With B9, the binding result is listed as “no binding”.

Take B10: the binding result is reported as “no binding”.

Regarding B11, the binding result was “no binding”.

In the case of B12, the binding result is given as “no binding”.

On to B13, for which the binding result is recorded as “no binding”.

On to B14, for which the binding result was “no binding”.

Regarding B15, the binding result is given as “no binding”.

In the case of B16, the binding result is on record as “no binding”.

Consider B17, for which the binding result is “no binding”.

For the molecule B18, the binding result is reported as “no binding”.

In the case of B19, the binding result is recorded as “no binding”.

As to B20, the binding result is “no binding”.

On to B21, for which the binding result is on record as “no binding”.

As for B22, the binding result was “no binding”.

On to B23, for which the binding result is listed as “binds”.

In another data set the target is T1, Oct6 DNA-binding domain (BD-Oct6). Described as above. The following applies: protein: recombinant; tags: GST (N-terminal, pGEX-6P-1); label: 32P-dCTP fill-in of the 5' (dG)5 overhangs of both strands (Methods; control probes are given with GGG). In short, it runs like this: as §1
With B1, the binding result was “no binding”.

As to B2, the binding result is “no binding”.

In the case of B3, the binding result is listed as “binds”.

In the case of B4, the binding result is “no binding”.

For B5, the binding result is on record as “no binding”.

B6: the binding result is recorded as “binds”.

As for B7, the binding result was “binds”.

Take B8: the binding result is recorded as “binds”.

On to B9, for which the binding result is on record as “no binding”.

In the case of B10, the binding result was “binds”.

In the case of B11, the binding result is on record as “binds”.

In the case of B12, the binding result is “no binding”.

As to B13, the binding result is recorded as “no binding”.

Turning to B14, the binding result is “no binding”.

As to B15, the binding result was “no binding”.

Take B16: the binding result was “binds”.

B17: the binding result was “no binding”.

With B18, the binding result was “no binding”.

Consider B19, for which the binding result was “no binding”.

On to B20, for which the binding result is “no binding”.

With B21, the binding result is recorded as “no binding”.

Regarding B22, the binding result is recorded as “binds”.

Turning to B23, the binding result was “binds”.

The target in another data set is T2, Brn2 DNA-binding domain (BD-Brn2). The data set is described as above. Particulars: protein: recombinant; tags: GST (N-terminal, pGEX-6P-1); label: 32P-dCTP fill-in of the 5' (dG)5 overhangs of both strands (Methods; control probes are given with GGG). Put shortly:
as §1
Consider B1, for which the binding result was “no binding”.

Take B2: the binding result is recorded as “no binding”.

As to B3, the binding result was “binds”.

As for B4, the binding result is reported as “no binding”.

Consider B5, for which the binding result is reported as “no binding”.

With B6, the binding result is on record as “no binding”.

As to B7, the binding result was “binds”.

On to B8, for which the binding result is on record as “binds”.

Regarding B9, the binding result is “no binding”.

Turning to B10, the binding result is reported as “binds”.

As to B11, the binding result is recorded as “no binding”.

For B12, the binding result is “no binding”.

Consider B13, for which the binding result is on record as “binds”.

Take B14: the binding result was “no binding”.

As to B15, the binding result is “no binding”.

As for B16, the binding result is given as “binds”.

Regarding B17, the binding result is listed as “no binding”.

Consider B18, for which the binding result is given as “no binding”.

B19: the binding result is given as “no binding”.

For the molecule B20, the binding result is recorded as “no binding”.

On to B21, for which the binding result is “no binding”.

B22: the binding result was “binds”.

Turning to B23, the binding result is “binds”.
